Article PMC9709061, “HSP90-CDC37-PP5 forms a structural platform for kinase dephosphorylation” (Nature Communications, 2022)

What was measured:
HSP90β = molecular target: T1, HSP90β (human, UniProt P08238 1-724, phosphorylation at Ser226 and Ser255 found by mass spectrometry); experiment: cryo-EM structure; HSP90–CDC37–BRAF^V600E complex incubated with PP5 D274N, purified by SEC, cross-linked with 1 mM BS3; one sample gave three classes: HCK (3.4 Å), HCK-P open (4.2 Å), HCK-P closed (3.9 Å); PP5 modelled by rigid-body docking; conditions: both partners purified
T1 construct: human HSP90β, full length; A 3C protease site lies between protein and tag; no cleavage step is described; Captured on Talon resin during the co-purification; source: co-purified (Talon, Streptactin, Superdex S200); not shown: His8, N-terminal, kept
T1 sequence (P08238 whole entry): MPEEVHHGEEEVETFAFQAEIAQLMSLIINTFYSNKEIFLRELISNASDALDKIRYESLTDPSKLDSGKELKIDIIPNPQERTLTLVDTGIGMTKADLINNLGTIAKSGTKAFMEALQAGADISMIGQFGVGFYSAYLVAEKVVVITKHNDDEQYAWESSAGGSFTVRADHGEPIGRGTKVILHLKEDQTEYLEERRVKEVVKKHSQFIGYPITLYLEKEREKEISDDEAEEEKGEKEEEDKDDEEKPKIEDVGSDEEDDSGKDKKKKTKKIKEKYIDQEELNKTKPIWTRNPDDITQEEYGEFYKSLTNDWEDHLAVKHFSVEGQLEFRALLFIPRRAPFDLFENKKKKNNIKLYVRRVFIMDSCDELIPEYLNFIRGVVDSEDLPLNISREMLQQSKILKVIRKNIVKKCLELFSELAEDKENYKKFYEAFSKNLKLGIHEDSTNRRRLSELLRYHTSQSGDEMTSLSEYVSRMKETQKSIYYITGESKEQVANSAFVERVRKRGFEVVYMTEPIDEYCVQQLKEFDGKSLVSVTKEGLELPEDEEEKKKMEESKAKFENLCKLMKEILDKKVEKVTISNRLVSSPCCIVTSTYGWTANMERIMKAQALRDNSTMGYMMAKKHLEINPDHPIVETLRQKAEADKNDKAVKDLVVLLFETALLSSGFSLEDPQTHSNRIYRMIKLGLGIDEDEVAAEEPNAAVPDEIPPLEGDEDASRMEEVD

BRAF^V600E = molecular target: T2, BRAF^V600E (human, UniProt P15056 1-766, V600E, phosphorylated as purified: Ser151, Ser339, Ser365, Thr401, Ser429, Ser432, Ser446, Ser614, Ser675, Ser729, Ser750, Thr753 (mass spectrometry; pSer729 also by western blot)); experiment: as above; conditions: both partners purified
T2 construct: human BRAF, full length (84 kDa), oncogenic V600E mutant; A 3C site lies between protein and tag; no cleavage step is described; also called kinase client; not shown: 2xStrep, N-terminal, kept
T2 sequence (P15056 whole entry V600E): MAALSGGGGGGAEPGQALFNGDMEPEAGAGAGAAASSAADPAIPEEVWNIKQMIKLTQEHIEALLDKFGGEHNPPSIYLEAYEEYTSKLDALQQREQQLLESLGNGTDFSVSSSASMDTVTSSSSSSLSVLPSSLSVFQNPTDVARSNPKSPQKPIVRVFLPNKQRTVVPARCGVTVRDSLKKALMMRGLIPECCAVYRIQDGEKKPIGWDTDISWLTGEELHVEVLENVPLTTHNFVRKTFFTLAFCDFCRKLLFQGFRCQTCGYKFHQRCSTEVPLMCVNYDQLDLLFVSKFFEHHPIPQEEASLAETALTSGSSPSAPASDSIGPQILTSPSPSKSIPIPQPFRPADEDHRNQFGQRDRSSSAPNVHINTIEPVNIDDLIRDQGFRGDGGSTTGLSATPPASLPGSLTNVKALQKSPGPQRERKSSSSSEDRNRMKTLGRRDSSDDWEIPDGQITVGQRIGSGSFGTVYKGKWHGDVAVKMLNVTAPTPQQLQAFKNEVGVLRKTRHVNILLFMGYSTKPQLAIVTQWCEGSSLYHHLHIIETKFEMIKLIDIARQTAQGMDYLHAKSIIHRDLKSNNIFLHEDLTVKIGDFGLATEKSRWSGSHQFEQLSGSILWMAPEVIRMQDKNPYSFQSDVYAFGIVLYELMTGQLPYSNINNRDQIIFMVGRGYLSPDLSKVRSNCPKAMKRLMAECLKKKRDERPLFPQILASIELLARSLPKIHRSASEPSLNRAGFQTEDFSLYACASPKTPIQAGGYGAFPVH

B1: PP5 D274N (enzyme, human, UniProt P53041 16-499, looked up)
chain: RDEPPADGALKRAEELKTQANDYFKAKDYENAIKFYSQAIELNPSNAIYYGNRSLAYLRTECYGYALGDATRAIELDKKYIKGYYRRAASNMALGKFRAALRDYETVVKVKPHDKDAKMKYQECNKIVKQKAFERAIAGDEHKRSVVDSLDIESMTIEDEYSGPKLEDGKVTISFMKELMQWYKDQKKLHRKCAYQILVQVKEVLSKLSTLVETTLKETEKITVCGDTHGQFYDLLNIFELNGLPSETNPYIFNGDFVNRGSFSVEVILTLFGFKLLYPDHFHLLRGNHETDNMNQIYGFEGEVKAKYTAQMYELFSEVFEWLPLAQCINGKVLIMHGGLFSEDGVTLDDIRKIERNRQPPDSGPMCDLLWSDPQPQNGRSISKRGVSCQFGPDVTKAFLEENNLDYIIRSHEVKAEGYEVAHGGRCVTVFSAPNYCDQMGNKASYIHLQGSDLRPQFHQFTAVPHPNVKPMAYANTLLQLGMM
notes: human PP5 (serine/threonine protein phosphatase 5), residues 16-499, D274N; also called catalytically dead PP5
HSP90β
  binding result: binds
BRAF^V600E
  binding result: binds
